The target in assay [1] is T1, anti-Complex I antibody (anti-HCMV antibody).
T1 construct: also called anti-CI; anti-CI antibody
The experiment in a line: Biacore. A general note: Surface plasmon resonance follows binding to a sensor surface in real time, without labels.

Assay [2] has as its target T1, anti-Complex I antibody (anti-HCMV …). As to the kind of experiment: anti-CI clinical PK ELISA; coat 4.25B10.15 1 ug/mL; 8G8 1 ug/mL; against unspiked human serum. The method, then: (§1) The plates are washed three times with 400 μl per well per cycle of wash buffer. 200 μl per well of blocking buffer (PBS/0.5% BSA/0.05% polysorbate 20/0.05% ProClin 300, pH 7.4±0.1) is added, and the plates are incubated at room temperature with shaking for 1-3 hours. Standard curves are prepared with standard/sample diluent (assay diluent with 0.5% normal pooled human serum; assay diluent is composed of PBS/0.5% BSA/0.05% polysorbate-20/0.35 M NaCl/0.25% CHAPS/5mM EDTA/0.05% ProClin 300, pH 7.4±0.1). The plates are washed three times with 400 μl per well per cycle of wash buffer. Diluted standards, controls and samples are added to plates at 100 μl per well, in duplicate. The plates are incubated at room temperature with shaking for 2 hours +10 minutes. The plates arc washed four times with 400 μl per well per cycle of wash buffer. HRP conjugates diluted in conjugate buffer (PBS/0.5% BSA/0.05% polysorbate 20/0.05% ProClin 300, pH 7.4±0.1) are added at 100 μl per well. The plates are incubated at room temperature with shaking for 1 hour±5 minutes, following which the plates are washed four times with 400 μl per well per cycle of wash buffer. […] The plates are read using a 450 nm read wavelength and a 620 or 630 nm reference wavelength. […]
In general terms: ELISA stands for enzyme-linked immunosorbent assay.

For assay [3] the target is unchanged. As to the kind of experiment: anti-CI clinical PK ELISA; coat 4.25B10.15 1 ug/mL; 8G8 4 ug/mL; against unspiked human serum. Here is the method: as §1
Assay [4] has the same target. As to the kind of experiment: anti-CI clinical PK ELISA; coat 4.25B10.15 1 ug/mL; 8G8 8 ug/mL; against unspiked human serum. The method, then: as §1
For assay [5] the target is unchanged. The experiment in a line: anti-CI clinical PK ELISA; coat 4.25B10.15 1 ug/mL; 8G8 16 ug/mL; against unspiked human serum. The method, then: as §1
Assay [6] has the same target. As to the kind of experiment: anti-CI clinical PK ELISA; coat 4.25B10.15 0.5 ug/mL; 8G8 1 ug/mL; against unspiked human serum. The method, then: as §1
Assay [7] has the same target. The experiment in a line: anti-CI clinical PK ELISA; coat 4.25B10.15 0.5 ug/mL; 8G8 4 ug/mL; against unspiked human serum. The method, then: as §1
The target is the same in assay [8]. The experiment in a line: anti-CI clinical PK ELISA; coat 4.25B10.15 0.5 ug/mL; 8G8 8 ug/mL; against unspiked human serum. The method, then: as §1
The target is the same in assay [9]. The experiment in a line: anti-CI clinical PK ELISA; coat 4.25B10.15 1 ug/mL; 8G8 0.5 ug/mL; against unspiked human serum. Here is the method:
as §1

The target is the same in assay [10]. The experiment in a line: anti-CI clinical PK ELISA; coat 4.25B10.15 0.5 ug/mL; 8G8 16 ug/mL; against unspiked human serum. Here is the method: as §1
Assay [11] has the same target. The experiment in a line: anti-CI clinical PK ELISA; coat 4.25B10.15 0.75 ug/mL; 8G8 1 ug/mL; against unspiked human serum. The method, then: (§2) Microtiter plates are coated overnight at 2-8° C. with 100 μl per well of 0.75 μg/ml anti-CI idiotypic antibody (in 0.05 M sodium carbonate buffer, pH 9.6±0.1). The plates are washed three times with 400 μl per well per cycle of wash buffer. 200 μl per well of blocking buffer (PBS/0.5% BSA/0.05% polysorbate 20/0.05% ProClin 300, pH 7.4±0.1) is added, and the plates are incubated at room temperature with shaking for 1-3 hours. Standard curves are prepared with standard/sample diluent (assay diluent with 0.5% normal pooled human serum; assay diluent is composed of PBS/0.5% BSA/0.05% polysorbate-20/0.35 M NaCl/0.25% CHAPS/5mM EDTA/0.05% ProClin 300, pH 7.4±0.1). The plates are washed three times with 400 μl per well per cycle of wash buffer. Diluted standards, controls and samples are added to plates at 100 μl per well, in duplicate. The plates are incubated at room temperature with shaking for 2 hours +10 minutes. The plates arc washed four times with 400 μl per well per cycle of wash buffer. HRP conjugates diluted in conjugate buffer (PBS/0.5% BSA/0.05% polysorbate 20/0.05% ProClin 300, pH 7.4±0.1) are added at 100 μl per well. […] The plates are read using a 450 nm read wavelength and a 620 or 630 nm reference wavelength. […]

The target is the same in assay [12]. The experiment in a line: anti-CI clinical PK ELISA; coat 4.25B10.15 0.75 ug/mL; 8G8 4 ug/mL; against unspiked human serum. The method, then: as §2
For assay [13] the target is unchanged. As to the kind of experiment: anti-CI clinical PK ELISA; coat 4.25B10.15 0.75 ug/mL; 8G8 8 ug/mL; against unspiked human serum. Here is the method: as §2
The target is the same in assay [14]. The experiment in a line: anti-CI clinical PK ELISA; coat 4.25B10.15 1 ug/mL; 8G8 0.25 ug/mL; against unspiked human serum. Here is the method: as §1
The target is the same in assay [15]. The experiment in a line: anti-CI clinical PK ELISA; coat 4.25B10.15 0.5 ug/mL; 8G8 0.5 ug/mL; against unspiked human serum. The method, then: as §1
The target is the same in assay [16]. The experiment in a line: anti-CI clinical PK ELISA; coat 4.25B10.15 0.75 ug/mL; 8G8 16 ug/mL; against unspiked human serum. The method, then:
as §2

The target is the same in assay [17]. As to the kind of experiment: anti-CI clinical PK ELISA; coat 4.25B10.15 1 ug/mL; 8G8 0.125 ug/mL; against unspiked human serum. The method, then: as §1
Assay [18] shares this target. As to the kind of experiment: anti-CI clinical PK ELISA; coat 4.25B10.15 0.5 ug/mL; 8G8 0.25 ug/mL; against unspiked human serum. The method, then:
as §1

For assay [19] the target is unchanged. As to the kind of experiment: anti-CI clinical PK ELISA; coat 4.25B10.15 0.75 ug/mL; 8G8 0.5 ug/mL; against unspiked human serum. The method, then: as §2
Assay [20] shares this target. As to the kind of experiment: anti-CI clinical PK ELISA; coat 4.25B10.15 0.5 ug/mL; 8G8 0.125 ug/mL; against unspiked human serum. Here is the method:
as §1

Assay [21] has the same target. The experiment in a line: anti-CI clinical PK ELISA; coat 4.25B10.15 0.75 ug/mL; 8G8 0.25 ug/mL; against unspiked human serum. Here is the method:
as §2

Assay [22] has the same target. As to the kind of experiment: anti-CI clinical PK ELISA; coat 4.25B10.15 0.75 ug/mL; 8G8 0.125 ug/mL; against unspiked human serum. Here is the method:
as §2

Assay [23] has the same target. The experiment in a line: anti-CI clinical PK ELISA standard curve; anti-CI 5 ug/mL in 0.5% human serum pool; against background. The method, then:
as §2

For assay [24] the target is unchanged. As to the kind of experiment: anti-CI clinical PK ELISA standard curve; anti-CI 10 ug/mL in 0.5% human serum pool; against background. The method, then: as §2
Assay [25] shares this target. As to the kind of experiment: anti-CI clinical PK ELISA standard curve; anti-CI 20 ug/mL in 0.5% human serum pool; against background. Here is the method: as §2
The target is the same in assay [26]. As to the kind of experiment: anti-CI clinical PK ELISA standard curve; anti-CI 2.5 ug/mL in 0.5% human serum pool; against background. The method, then:
as §2

Assay [27] shares this target. As to the kind of experiment: anti-CI clinical PK ELISA standard curve; anti-CI 1.25 ug/mL in 0.5% human serum pool; against background. Here is the method: as §2
Assay [28] shares this target. The experiment in a line: anti-CI clinical PK ELISA standard curve; anti-CI 0.156 ug/mL in 0.5% human serum pool; against background. Here is the method: as §2
Assay [29] has the same target. The experiment in a line: anti-CI clinical PK ELISA standard curve; anti-CI 0.313 ug/mL in 0.5% human serum pool; against background. The method, then: as §2
The target is the same in assay [30]. As to the kind of experiment: anti-CI clinical PK ELISA standard curve; anti-CI 0.625 ug/mL in 0.5% human serum pool; against background. The method, then: as §2
Assay [31] has as its target T2, anti-gH antibody (anti-HCMV antibody).
T2 construct: Anti-HCMV monoclonal antibody with a human IgG Fc (detected with anti-human IgG Fc)
The experiment in a line: Biacore.

For assay [32] the target is unchanged. The experiment in a line: preliminary anti-HCMV human PK ELISA, anti-ID coat 1 ug/mL, anti-gH in 1% NHS, HRP-sheep anti-huIgG. The method, then: The assay was carried out as follows: microtiter ELISA plates were coated with anti-idiotypic monoclonal antibodies at 1 μg/mL in PBS overnight. Anti-CI and anti-gH were diluted in 1% NHS and added to the wells, being subsequently detected with 50 ng/mL (in-well concentration) of HRP-Sheep anti-huIgG.

T1 sequence (VH, as listed by the source, chain 1 of 2): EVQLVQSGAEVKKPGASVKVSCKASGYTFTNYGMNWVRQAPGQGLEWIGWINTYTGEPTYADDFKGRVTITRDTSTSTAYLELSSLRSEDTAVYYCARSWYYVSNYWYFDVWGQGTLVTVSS
T1 sequence (VL, as listed by the source, chain 2 of 2): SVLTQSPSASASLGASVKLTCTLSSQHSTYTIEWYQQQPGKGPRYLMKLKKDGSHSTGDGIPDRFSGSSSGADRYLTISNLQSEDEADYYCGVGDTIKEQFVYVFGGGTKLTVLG
T2 sequence (VH, as listed by the source, chain 1 of 2): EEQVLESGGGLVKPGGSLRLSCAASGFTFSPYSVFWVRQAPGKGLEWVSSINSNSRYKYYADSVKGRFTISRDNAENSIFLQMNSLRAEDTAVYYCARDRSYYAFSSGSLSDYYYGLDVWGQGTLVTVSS
T2 sequence (VL, as listed by the source, chain 2 of 2): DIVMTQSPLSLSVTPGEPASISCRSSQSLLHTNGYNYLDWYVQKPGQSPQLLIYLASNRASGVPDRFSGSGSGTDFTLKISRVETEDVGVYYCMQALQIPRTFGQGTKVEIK

B1: murine mAb 4.25B10.15 (antibody, IgG1, V domains shown)
VH: QVQLQQSGAELVRPGTSVKVSCKASGYAFTNYLIEWVKQRPGQGLEWIGVINPGSGGTNYNEKFEAKATLTADKSSSTAYMQLSSLTSDDSAVYFCARHGSSYWYFDVWGAGTTVTVSS
VL: DIVMTQSPATLSVTPGDRVSLSCRASQSISDYLHWYQQKSHESPRLLIKYASQSISGIPSRFSGSGSGSDFTLSINSVEPEDVGVYYCQNGHSFPYTFGGGTKLEIK
notes: also called anti-CI idiotypic antibody; anti-CI anti-ID mAb
As to B1, the Kd (in general, the equilibrium constant for the complex coming apart) in [1] turned out to be 4.7 nM. The Signal/bkgd ratio in assay [2] is 4.4 ratio; in assay [3], 10 ratio; in assay [4] it was 13 ratio; in assay [5], 13.8 ratio; in assay [6], 4.3 ratio; in [7], 10.4 ratio. Besides, the Signal/bkgd ratio in assay [8] worked out at 12.3 ratio; in assay [9], 2.7 ratio; in [10], 14.7 ratio; in [11] it was 5.3 ratio; in [12], 13.3 ratio; in assay [13] it was 16.5 ratio. In addition, the Signal/bkgd ratio in assay [14] was 1.9 ratio; in assay [15] it was 2.7 ratio; in assay [16], 19.1 ratio; in assay [17], 1.4 ratio; in assay [18] it was 1.8 ratio; in [19], 3.2 ratio. Besides, the Signal/bkgd ratio amounted to 1.4 ratio in [20], 2.1 ratio in assay [21] and 1.5 ratio in assay [22]. Moreover, the S/B ratio in assay [23] was determined as 13.6 ratio; in assay [24] it was 19.6 ratio; in assay [25] it was 22.3 ratio; in [26] it was 8.4 ratio; in assay [27] it was 4.9 ratio; in assay [28] it was 1.5 ratio. Further, the S/B ratio was determined as 2 ratio in assay [29] and 3 ratio in [30].

B2: murine mAb 1.9E1.1 (antibody, IgG1, V domains shown)
VH: QVQLQQSGAELVMPGASVKMSCKASGYTFTDYWMYWVNQRPGQGLEWIGAIDTSDSYTTYNQNFKGKATLTVDESSSTAYMQLNSLTSEDSAVYYCARSGFPLFYYPMDYWGQGTSVTVSS
VL: QAVVTQESALTTSPGETVTLTCRSSTGAVTTSNYANWVQEKPDHLFTGLIGGTVNRAPGVPARFSGSLIGDKAALTITGAQTEDEAVYFCALWYSNHLVFGGGTKLTVL
notes: Used biotin-conjugated in the clinical PK ELISA and the LC-MS/MS capture; also called anti-gH idiotypic antibody; anti-gH anti-ID mAb
In the case of B2, the Kd in [31] was determined as 0.1 nM. For the same molecule, the “fold of OD in the presence of anti-gH over OD in the absence of anti-gH” value in assay [32] was above 2 fold.

These data come from patent US20160002355A1 (Genentech, published 2016).
